Data published in patent US20210171616A1 (Eli Lilly, published 2021).
Values belong to the molecule of their own block, whether it stands above or below them.

Experiments:
[1] = target: T1, PACAP38 (human, K at residue 38 modified by C-terminal amidation); assay: cell-based or functional assay
T1 peptide: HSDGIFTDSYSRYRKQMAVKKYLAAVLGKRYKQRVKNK

[2] = target: T2, PACAP27 (human, L at residue 27 modified by C-terminal amidation); assay: cell-based or functional assay
T2 peptide: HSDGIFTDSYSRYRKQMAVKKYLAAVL

[3] = target: T1, PACAP38; assay: cell-based or functional assay
[4] = target: T2, PACAP27; assay: cell-based or functional assay
[5] = target: T3, VIP (UniProt P01282 125-152); assay: cell-based or functional assay
T3 peptide (looked up): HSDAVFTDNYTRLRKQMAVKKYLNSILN

[6] = target: T1, PACAP38; assay: cell-based or functional assay
[7] = target: T2, PACAP27; assay: cell-based or functional assay
[8] = target: T2, PACAP27; assay: cell-based or functional assay
[9] = target: T1, PACAP38; assay: cell-based or functional assay
[10] = target: T1, PACAP38; assay: cell-based or functional assay
[11] = target: T4, N-terminal biotinylated PACAP38 (Anaspec, #23590) (human, N-terminal biotin; K at residue 38 modified by C-terminal amidation (as stated for SEQ ID NO 13)); assay: kinetic exclusion 96-well MSD plate assay, solution equilibrium at 37 C, 30 pM biotinylated antigen
T4 construct: Bought peptide; also called Antigen (PACAP38)
T4 peptide: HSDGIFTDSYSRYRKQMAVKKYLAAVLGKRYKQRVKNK
Procedure: (§1) Binding affinity (KD) for each antibody-antigen complex is determined using a kinetic exclusion 96-well plate-based assay (adapted from Estep et al., mAbs, 2013, 5:270-278). Briefly, a 3-fold dilution series for each Exemplified Ab (set forth in Table 1) is prepared from a starting concentration of 7290 pM to 41 fM; each series including an antibody-blank control. Samples are prepared in 3% (w/v) Blocker A solution (MSD, #R93AA-1) and a fixed final antigen concentration of 30 pM of N-terminal biotinylated PACAP27 (custom synthesis, CPC Scientific) or N-terminal biotinylated PACAP38 (Anaspec, #23590) is added to each sample. A volume of 100 μl of each antigen-antibody sample is added to individual wells of a 96-well microtiter plate (Greiner, EK-20101) in duplicate. The plate is sealed with optical adhesive film (Thermo Fisher Scientific, #4311971) and incubated at 37° C. for 3 to 4 days to allow for sample equilibrium. On the day before analysis, each row of a 96-well MSD Standard plate (MSD, #L15XA) is coated with 30 μl of the corresponding antibody (as used in the titration series) at a concentration of 3 μg/ml in phosphate buffered saline (PBS). On the day of the experiment, the MSD Standard plate is washed once with 150 μl PBS and blocked with 150 μl of 3% Blocker A solution for 45 min at 30° C. with shaking at 300 rpm on a MaxQ 4450 benchtop shaker (Thermo Fisher Scientific). Following three washes with PBS, 50 μl of each antigen-antibody sample (prepared and incubated as described above) is added to the MSD Standard plate and incubated for 150 seconds at 30° C. with shaking at 300 rpm. Following a single wash with PBS, 50 μl of 1 μg/ml SULFO-TAG labeled Streptavidin (MSD, #R32AD-5) prepared in 1% (w/v) Blocker A solution is added and the MSD Standard plate and the plate is incubated at 30° C. for 3 minutes with shaking at 300 rpm. The plate is washed three more times with PBS followed by the addition of 150 μl/well of 1× Read buffer (MSD, #R92TC-2). The MSD Standard plate is read using a MESO Quickplex SQ 120/1300 instrument (Meso Scale Discovery). Data analysis is done using SigmaPlot (Version 12.5, Systat Software) and binding affinity (KD) is determined using SigmaPlot's integrated Four Parameter Logistic Curve Model.

[12] = target: T5, N-terminal biotinylated PACAP27 (custom synthesis, CPC Scientific) (human, N-terminal biotin; L at residue 27 modified by C-terminal amidation (as stated for SEQ ID NO 14)); assay: as above
T5 construct: Custom peptide; also called Antigen (PACAP27)
T5 peptide: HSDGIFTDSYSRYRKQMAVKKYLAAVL
Procedure: as §1

Percentage tryptase release in human mast cells upon addition of 1 uM PACAP38; negative control antibody, single point [1]: 104% | Percentage tryptase release upon addition of PACAP38; negative control antibody dose 153 uM [1]: 79.6% | Plasma cAMP levels in CD-1 mice after iv PACAP38 (13 nmols/kg); control antibody 10 mg/kg sc [1]: 4.09 µM | Percentage tryptase release in human mast cells upon addition of 1 uM PACAP27; negative control antibody, single point [2]: 110% | Percentage tryptase release upon addition of PACAP27; negative control antibody dose 153 uM [2]: 94.8%
Molecule: IgG4 mAb (negative control) (antibody)

Inhibition (IC50) of PACAP38 (100 pM) induced cAMP in hPAC1 CHO-K1 cells [3]: 265 pM | Inhibition (IC50) of PACAP38 (800 pM) induced cAMP in hVPAC2 CHO-K1 cells [3]: 294 pM | Inhibition (IC50) of PACAP27 (100 pM) induced cAMP in hPAC1 CHO-K1 cells [4]: 270 pM | Inhibition (IC50) of PACAP27 (800 pM) induced cAMP in hVPAC2 CHO-K1 cells [4]: 605 pM | Inhibition (IC50) of VIP (800 pM) induced cAMP in hVPAC2 CHO-K1 cells [5]: > 100000 pM | Percentage tryptase release in human mast cells upon addition of 1 uM PACAP38; antibody 153 uM, single point [6]: 4.9% | Percentage tryptase release in human mast cells upon addition of 1 uM PACAP27; antibody 153 uM, single point [7]: 21% | Percentage tryptase release upon addition of PACAP27; antibody dose 0 uM [8]: 85.2% | Percentage tryptase release upon addition of PACAP27; antibody dose 0.2 uM [8]: 78.1% | Percentage tryptase release upon addition of PACAP27; antibody dose 0.6 uM [8]: 54% | Percentage tryptase release upon addition of PACAP27; antibody dose 1.8 uM [8]: 11.7% | Percentage tryptase release upon addition of PACAP27; antibody dose 5.6 uM [8]: 8.1% | Percentage tryptase release upon addition of PACAP27; antibody dose 17 uM [8]: 11.6% | Percentage tryptase release upon addition of PACAP27; antibody dose 51 uM [8]: 19.4% | Percentage tryptase release upon addition of PACAP27; antibody dose 153 uM [8]: 10.3% | Percentage tryptase release upon addition of PACAP38; antibody dose 0 uM [9]: 77.2% | Percentage tryptase release upon addition of PACAP38; antibody dose 0.2 uM [9]: 73.7% | Percentage tryptase release upon addition of PACAP38; antibody dose 0.6 uM [9]: 52.4% | Percentage tryptase release upon addition of PACAP38; antibody dose 1.8 uM [9]: 25.2% | Percentage tryptase release upon addition of PACAP38; antibody dose 5.6 uM [9]: 22% | Percentage tryptase release upon addition of PACAP38; antibody dose 17 uM [9]: 14.9% | Percentage tryptase release upon addition of PACAP38; antibody dose 51 uM [9]: 14.6% | Percentage tryptase release upon addition of PACAP38; antibody dose 153 uM [9]: 2% | Plasma cAMP levels in CD-1 mice after iv PACAP38 (13 nmols/kg); antibody 10 mg/kg sc [10]: 715 nM | Kd [11]: 0.0128 nM | Kd [12]: 0.0116 nM
B1: Exemplified Antibody B (antibody, human IgG4 S228P, kappa, F234A L235A, V domains shown)
VH: EVQLLESGGGLVQPGGSLRLSCAASGFTFSSYYMSWVRQAPGKGLEWVSAISLSGGSTYYAASHKGRFTISRDNSKNTLYLQMNSLRAEDTAVYYCVREVGASTHNYYGMDVWGQGTMVTVSS
VL: DIQMTQSPSSLSASVGDRVTITCRASQSIWRWLAWYQQKPGKAPKLLIHDASQLFEGVPSRFSGSGSGTDFTFTISSLQPEDIATYYCQQFDLLPLTFGGGTKVEIKR
notes: IgG4, kappa light chain; also called Exemplified Ab B; Ab B
